In US20120219559A1 (Johns Hopkins, published 2012):

Experiments:
Experiment in all cases: CDS well image, 293T cells transfected with the human gene, stained with the human fusion protein
[1] = molecular target: T1, human B7-2 (CD86, B70) expressed on 293T cells (human, UniProt P42081 24-329)
T1 construct: whole, on cells
T1 sequence (looked up): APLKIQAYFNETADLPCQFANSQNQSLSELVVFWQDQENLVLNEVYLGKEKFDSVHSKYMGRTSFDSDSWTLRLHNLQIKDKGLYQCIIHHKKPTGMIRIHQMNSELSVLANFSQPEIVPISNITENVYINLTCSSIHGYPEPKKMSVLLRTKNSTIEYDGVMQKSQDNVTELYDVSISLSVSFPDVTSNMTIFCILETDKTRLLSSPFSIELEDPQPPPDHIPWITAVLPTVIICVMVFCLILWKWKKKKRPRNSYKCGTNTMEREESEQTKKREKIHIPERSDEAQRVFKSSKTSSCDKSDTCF

[2] = molecular target: T2, human B7-H1 expressed on 293T cells (human, UniProt Q9NZQ7 19-290)
T2 construct: whole, on cells

[3] = molecular target: T3, human CD28, full length, expressed on cells (CD28+293T cells) (human, UniProt P10747 19-220)
T3 construct: This id also stands for CD28 on purified human T cells in the functional rows; also called CD28+ cells

[4] = molecular target: T4, human CTLA-4, full length, expressed on cells (CTLA-4+293T cells) (human, UniProt P16410 36-223)
T4 sequence: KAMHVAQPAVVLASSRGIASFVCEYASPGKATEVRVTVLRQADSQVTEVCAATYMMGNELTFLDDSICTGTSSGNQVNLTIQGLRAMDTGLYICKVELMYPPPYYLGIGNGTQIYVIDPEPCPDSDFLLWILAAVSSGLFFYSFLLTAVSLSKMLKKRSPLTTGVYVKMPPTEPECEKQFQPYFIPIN

[5] = molecular target: T5, human B7-1 (CD80) expressed on 293T cells (human, UniProt P33681 35-288)
T5 construct: whole, on cells
T5 sequence (looked up): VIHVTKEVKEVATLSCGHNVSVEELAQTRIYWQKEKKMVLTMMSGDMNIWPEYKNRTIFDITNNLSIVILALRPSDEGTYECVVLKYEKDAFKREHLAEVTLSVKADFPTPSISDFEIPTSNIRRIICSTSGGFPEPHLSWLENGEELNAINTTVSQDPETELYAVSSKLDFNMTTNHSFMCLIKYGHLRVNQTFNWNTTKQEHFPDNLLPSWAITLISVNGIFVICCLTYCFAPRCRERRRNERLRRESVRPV

Measured: binding result

T2 sequence (Q9NZQ7 19-290): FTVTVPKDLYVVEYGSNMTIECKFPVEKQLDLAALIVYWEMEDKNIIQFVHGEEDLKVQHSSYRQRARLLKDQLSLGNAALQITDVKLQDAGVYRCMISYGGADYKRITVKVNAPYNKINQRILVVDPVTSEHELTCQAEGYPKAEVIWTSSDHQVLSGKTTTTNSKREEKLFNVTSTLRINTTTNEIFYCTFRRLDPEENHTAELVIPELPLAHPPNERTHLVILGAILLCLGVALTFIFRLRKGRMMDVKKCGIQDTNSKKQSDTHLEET
T3 sequence (P10747 19-220): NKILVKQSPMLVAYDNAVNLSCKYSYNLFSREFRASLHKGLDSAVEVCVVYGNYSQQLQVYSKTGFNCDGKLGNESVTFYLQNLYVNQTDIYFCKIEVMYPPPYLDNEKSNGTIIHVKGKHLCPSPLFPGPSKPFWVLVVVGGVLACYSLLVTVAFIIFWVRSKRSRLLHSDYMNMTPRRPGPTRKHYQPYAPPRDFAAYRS

B1: human ICOSIg fusion protein (Fc fusion)
chain: EINGSANYEMFIFHNGGVQILCKYPDIVQQFKMQLLKGGQILCDLTKTKGSGNTVSIKSLKFCHSQLSNNSVSFFLYNLDHSHANYYFCNLSIFDPPPFKVTLTGGYLHIYESQLCCQLKF
notes: Bought from R&D Systems; Ig (Fc) part not given
no binding: all assays above
